Test results reported in US20230174596A1 (published 2023).
Numbering of substitutions follows the chain as printed. Names may count otherwise.

T1: human VEGF-A (human), P15692
T1 chain: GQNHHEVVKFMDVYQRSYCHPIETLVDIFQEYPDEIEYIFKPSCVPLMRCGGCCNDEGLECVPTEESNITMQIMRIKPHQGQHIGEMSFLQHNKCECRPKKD

T2: hVEGF-A (8-109) (human, UniProt P15692 214-315)
T2 construct: residue numbers count on mature VEGF-A; dimer
T2 sequence (looked up): T1 chain

T3: human VEGF-A (human, UniProt P15692-4 34-135, limits assumed)
T3 sequence (looked up): T1 chain

T4: rat VEGF-A (rat, UniProt P16612-2 27-190, limits assumed)
T4 sequence (looked up): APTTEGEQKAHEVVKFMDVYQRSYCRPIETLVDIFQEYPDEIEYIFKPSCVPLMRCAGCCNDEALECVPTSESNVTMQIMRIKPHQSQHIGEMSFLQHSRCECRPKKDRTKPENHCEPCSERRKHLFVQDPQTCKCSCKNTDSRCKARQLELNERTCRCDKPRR

T5: mVEGF (mouse, UniProt Q00731-2 27-190, limits assumed)
T5 sequence (looked up): T4 sequence (looked up) with A10S, V14I, V75I

T6: hVEGF-A Q89A (human, UniProt P15692 34-135)
T6 chain: T1 chain with Q82A

T7: hVEGF-A K48A (human, UniProt P15692 34-135)
T7 chain: T1 chain with K41A

T8: hVEGF-A Y21A (human, UniProt P15692 34-135)
T8 chain: T1 chain with Y14A

B1: VEGF_CKP9.54.90-Alkyn (designed binder)
chain: GCNIMLPFWGCGRDFECLAGCVCQYYQSCG
modifications: not checked
B2: VEGF_CKP9.63.27 (designed binder)
chain: GCDVMQPYWGCGRDMDCLAGCVCHWYNSCG
notes: also called L2.9.63.27
B3: VEGF_CKP9.63.1 (designed binder)
chain: GCDVMQPYWGCGENFLCLAGCVCHWYNSCG
notes: also called L2.9.63.1
B4: VEGF_CKP9.63.69 (designed binder)
chain: B3 chain with N14S, F15L, L16S
notes: also called L2.9.63.69
B5: VEGF_CKP9.63.44 (designed binder)
chain: B2 chain with G12E, R13M, M15F
notes: also called L2.9.63.44
B6: VEGF_CKP6 (designed binder)
chain: GCPTTRFKQYCKQDSDCLAGCVCGPNGFCG
B7: VEGF_CKP9.54.90.13.F8Y (designed binder)
chain: GCNIMLPYWGCGRDFECMNQCICQYYQSCG
B8: VEGF_CKP10 (designed binder)
chain: GCRDLDVKWDCKQDSDCLAGCFCQYYSSCG
B9: VEGF_CKP9.54.90 F7Y Δ2G (designed binder)
chain: CNIMLPYWGCGRDFECLAGCVCQYYQSC
B10: VEGF_CKP7 (designed binder)
chain: GCQDPTFNWALYCKQDSDCLAGCVCQMYQSCG
B11: VEGF_CKP9.54.90.62 (designed binder)
chain: GCNIMLPFWGCGRDFECFYECICQYYQSCG
B12: VEGF_CKP9.54.90.44 (designed binder)
chain: B11 chain with Y19I, E20N
B13: VEGF_CKP9.63.12.12 (designed binder)
chain: GCDVMQPYWGCGPDIDCLSNCICHWYNSCG
B14: VEGF_CKP9.54.90.67 (designed binder)
chain: B7 chain with Y8F, N19E
B15: VEGF_CKP9.54.90.62.F8Y (designed binder)
chain: B11 chain with F8Y
B16: VEGF_CKP12 (designed binder)
chain: GCTTPWPPHEIMCKQDSDCLAGCVCGPNGFCG
B17: VEGF_CKP9 (designed binder)
chain: GCQLMQPFWGCKQDSDCLAGCVCHWYQSCG
B18: VEGF_CKP9.54.90 (designed binder)
chain: B1 chain
B19: VEGF_CKP9.54 (designed binder)
chain: GCNIMLPFWGCKQDSDCLAGCVCQYYQSCG
notes: also called EM54
B20: VEGF_CKP9.63 (designed binder)
chain: B2 chain with G12K, R13Q, M15S
notes: also called EM63
B21: VEGF_CKP9.63.12 (designed binder)
chain: B2 chain with R13P, M15I
notes: also called L2.9.63.12

Biological target: T1, human VEGF-A (human), P15692
Test: SPR
Conditions: not given
B1 gave a Kd of 0.00049 µM.

These binders were tested against T2, hVEGF-A (8-109) (assay: SPR). Conditions: not given.
B2 showed a Kd of 0.0014 µM. With B3 the Kd was 0.0058 µM. Binder B4 has a Kd of 0.0069 µM. B5 showed a Kd of 0.0012 µM.

These binders were tested against T3, human VEGF-A (assay: cell-based or functional assay). Conditions: not given.
In the case of B6, the “Cellular Assay IC50, hVEGF-A (25 ng/ml)” value is reported as 47 µM. B7 showed a Cellular IC50 of 0.00202 µM and a fold improvement relative to variant 9.54.90 (cellular IC50) of 0.67 fold. In the case of B8, the “Cellular Assay IC50, hVEGF-A (25 ng/ml)” value is reported as 45 µM. For B9, the Cellular IC50 was 0.00301 µM and the fold improvement relative to variant 9.54.90 (cellular IC50) was 0.44 fold. With B10 the “Cellular Assay IC50, hVEGF-A (25 ng/ml)” value was 18 µM. B11 was tested, and the Cellular IC50 was 0.00092 µM and the fold improvement relative to variant 9.54.90 (cellular IC50) was 1.47 fold. In the case of B12, the Cellular IC50 is reported as 0.00116 µM and the fold improvement relative to variant 9.54.90 (cellular IC50) is reported as 1.16 fold. B13 gave a Cellular IC50 of 0.00056 µM and a fold improvement relative to variant 9.54.90 (cellular IC50) of 2.41 fold. B14 gave a Cellular IC50 of 0.0011 µM and a fold improvement relative to variant 9.54.90 (cellular IC50) of 1.23 fold. B15 showed a Cellular IC50 of 0.00114 µM and a fold improvement relative to variant 9.54.90 (cellular IC50) of 1.18 fold. B16 was tested, and the “Cellular Assay IC50, hVEGF-A (25 ng/ml)” value was 102 µM. In the case of B17, the “Cellular Assay IC50, hVEGF-A (25 ng/ml)” value is reported as 12 µM.

Same assay, conditions: record 2
B13 showed a Cellular IC50 of 0.0005 µM. Work on B14 yielded a Cellular IC50 of 0.001 µM.

Each binder was assayed against T4, rat VEGF-A (assay: cell-based or functional assay). Conditions: not given.
For B6, the “Cellular Assay IC50, rVEGF (50 ng/ml)” value was 711 µM. With B8 the “Cellular Assay IC50, rVEGF (50 ng/ml)” value was 18 µM. B10 was tested, and the “Cellular Assay IC50, rVEGF (50 ng/ml)” value was 7 µM. For B16, the “Cellular Assay IC50, rVEGF (50 ng/ml)” value was 1220 µM. With B17 the “Cellular Assay IC50, rVEGF (50 ng/ml)” value was 1 µM.

These binders were tested against T5, mVEGF (assay: cell-based or functional assay). Conditions: not given.
B6 was tested, and the “Cellular Assay IC50, mVEGF (50 ng/ml)” value was 169 µM. B10 was tested, and the “Cellular Assay IC50, mVEGF (50 ng/ml)” value was 39 µM. With B16 the “Cellular Assay IC50, mVEGF (50 ng/ml)” value was 243 µM. For B17, the “Cellular Assay IC50, mVEGF (50 ng/ml)” value was 10 µM.

These binders were tested against T2, hVEGF-A (8-109) (assay: spot phage ELISA). Conditions: not given.
In the case of B6, the ELISA is reported as 3.5 and the S/N is reported as 51.9. B8 gave an ELISA of 3.2 and a S/N of 43.7. Binder B10 has an ELISA of 3.4 and a S/N of 54.5. Work on B16 yielded an ELISA of 3.5 and a S/N of 55.2. B17 showed an ELISA of 0.4 and a S/N of 7.4.

Same assay, conditions: record 2
Binder B10 has an ELISA of 0.1 and a S/N of 1.3. In the case of B17, the ELISA is reported as 0.9 and the S/N is reported as 11.6.

Same assay, conditions: record 3
In the case of B17, the ELISA is reported as 3.3 and the S/N is reported as 36.

Biological target: T6, hVEGF-A Q89A
Test: SPR
Conditions: not given
Binder B18 has a Kd of 0.0088 µM. Work on B19 yielded a Kd of 1.88 µM. Binder B20 has a Kd of 2 µM. For B21, the Kd was 0.0365 µM.

Biological target: T7, hVEGF-A K48A
Test: SPR
Conditions: not given
Binder B18 has a Kd of 0.00019 µM. For B19, the Kd was 0.022 µM. With B20 the Kd was 0.0284 µM. With B21 the Kd was 0.00033 µM.

Biological target: T8, hVEGF-A Y21A
Test: SPR
Conditions: not given
B18 gave a Kd of 0.0035 µM. B19 was tested, and the Kd was 0.317 µM. Work on B20 yielded a Kd of 0.585 µM. B21 showed a Kd of 0.00984 µM.
